Target: T1, L-selectin LE-His (monomeric, lectin and EGF-like domains) (human, UniProt P14151 39-194)
T1 sequence: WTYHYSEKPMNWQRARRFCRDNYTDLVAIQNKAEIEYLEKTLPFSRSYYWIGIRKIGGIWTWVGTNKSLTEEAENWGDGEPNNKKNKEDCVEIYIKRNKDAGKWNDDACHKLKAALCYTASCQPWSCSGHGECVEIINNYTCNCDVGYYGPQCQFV
Experiment: SPR (single cycle kinetics); 1 mM CaCl2; protein in cell culture supernatant; abstract gives ~12 nM; SPR: HBS-Ca (20 mM HEPES pH 7.5, 150 mM NaCl, 1 mM CaCl2), Biacore X100, temperature not stated; column: PBS with 0.9 mM CaCl2 and 0.5 mM MgCl2, room temperature
Settings: protein: recombinant; tags: C-terminal His; label: 5' biotin

B1: LD201mΔ1 (structured_DNA)
DNA: GCCAGTACAAGGTGCTAAACGTAATGGC
Kd: 11.2 ± 0.8 nM

Reference: PMC5336075, “Single-Step Purification of Monomeric l-Selectin via Aptamer Affinity Chromatography”
